Assay results published in US10010616B2, “Immunogenic compositions and reagents for preparing” (PURDUE RESEARCH FOUNDATION, priority 2011, dated 2018).

Assays:
[1] = reported, Hem et al., Vaccine 1995; cited from earlier work
[2] = Adsorption isotherm on aluminum hydroxide adjuvant; assay type: binding; conditions: Rehydragel HPA aluminum hydroxide 20-26 μg/mL, 4° C., micro BCA assay
Procedure: The phosphorus containing groups described herein bind adjuvants. Compounds containing a phosphorus containing group and a UV chromophore are prepared and quantitative binding data are obtained as adsorption isotherms. Briefly, Rehydragel HPA aluminum hydroxide was suspended (113 μg/mL) in buffer, and varying concentrations of each of compounds E, F, G, and H are added. The suspensions are allowed to equilibrate, and the concentration of each compound in solution at equilibrium is measured. The amount of compound adsorbed (weight/weight) is plotted against the concentration in solution to generate the adsorption isotherm. Adsorption capacity and adsorptive coefficient are calculated for each compound by double reciprocal analysis; the results are summarized in the following table.
Compound B is coupled to egg white lysozyme. […] After centrifugation, the protein concentration in the supernatant is measured by a standard micro bicinchoninic acid protein assay procedure. […]
Adsorption of Compound H (Egg white Lysozyme/Compound B conjugate) by Aluminum Hydroxide. […] The supernatant was analyzed in triplicate for compound H concentration by the micro bicinchoninic acid (BCA) assay. The amount of compound H adsorbed was determined by subtracting the amount remaining in the supernatant from the amount initially present. […]

Mice = assay: Anti-lysozyme antibody response in mice, conjugated vs unconjugated lysozyme; assay type: in vivo; conditions: 10 μg dose, FIG. 2
Procedure: Compound B-Lysozyme-P2 is prepared in a similar manner using a greater excess of conjugating agent compound B. To determine the magnitude of immunogenic enhancement for the linker-modified protein, a dose response is evaluated comparing a range of doses of compound B-Lysozyme-P2 and AH, to a range of doses of unmodified hen egg lysozyme and AH, according to the following table:
Mice are injected on day 0 and day 21. Blood is collected on day 21 and on day 35. Serum anti-lysozyme IgG and anti-lysozyme IgG subclasses are measured by ELISA assay.
Dose response comparison of conjugated and unconjugated lysozyme immunological response. […] preparations are investigated: (A), lysozyme alone (10 μg dose); (B), lysozyme (10 μg dose)+AH; (C), lysozyme-P2 (2 conjugate load, 10 μg dose)+AH; (D) lysozyme (1 μg dose)+AH; (E), lysozyme-P2 (1 μg dose)+AH.

Question: Which “Complexation by aluminum hydroxide (in words)” value [1] does the source give for “lysozyme: egg white lysozyme (16 kDa MW), unmodified” here?
Answer: negligibly complexed

Question: And the “Affinity for aluminum hydroxide (in words)” value [2]?
Answer: poor electrostatic binding with aluminum hydroxide

Question: And the anti-lysozyme antibody production (Mice)?
Answer: does not show a significant induction of antibody response
